{"source": "the DeepSol protein solubility set", "data": [{"experiment": "soluble on expression in E. coli; label from the status in PepcDB or PDB records", "values": [{"sequence": "MYVENSYLSKQLCFLFYVSSKEIIKKYTNYLKEYDLTYTGYIVLMAIENDEKLNIKKLGERVFLDSGTLTPLLKKLEKKDYVVRTREEKDERNLQISLTEQGKAIKSPLAEISVKVFNEFNISEREASDIINNLRNFVSKNFDYSDKK", "soluble on expression in E. coli": "not soluble"}, {"sequence": "MTLSTINPMKKSRIDNIHHTQILFFSDENQIDQEAPYYDALLDLEKDYPEQIDKMKVYDKKEGWEDEIETVPTLMVVDQRHVVVKIEGCVKKKEDIIKPLQHVLSKLEHHHHHH", "soluble on expression in E. coli": "not soluble"}, {"sequence": "MGSDKIHHHHHHMNTDSPLKAIQPPADEQAWAVRARRQFEAEQLLYAYVEYIDDDRLEELPELFTEDGSYQIISRENVERGLPAPTMGCSNRNMLIDRIVSLRHANIYSQHAYRHVLSNVRVKAMEGDEALVQSNYVVMATRGDGIARVYSTGKYVDRLVFEEDGPKFKQKRVIFDTQLIDTLLVRPL", "soluble on expression in E. coli": "not soluble"}, {"sequence": "MGHHHHHHSHMFTMLCINGTTPRPLPVPSPFGCMIFFFFKNPWKQCLLQGWLGARPIHLLGYLPLSLLWCPFPLPCARCSVVYISSPRHGAHAPRDMILSLVLAHGALYKELGGRGRKWEPS", "soluble on expression in E. coli": "not soluble"}, {"sequence": "MSSTIKAIAVLKGDSPVQGVITFTQESSGGPVTVSGEIKNMDANAQRGFHVHQFGDNSNGCTSAGPHFNPTGTNHGDRTAEVRHVGDLGNVKTDASGVAKVQISDSQLSLVGPHSIIGRTIVIHAGEDDLGKTDHPESLKTGNAGARSACGVIGIAAAAALEHHHHHH", "soluble on expression in E. coli": "soluble"}, {"sequence": "MKVAIVHNSEEKSKQVTKQLTTLLEQNQIQIDNRQPELVISVGGDGTLLSAFHRFNHLLNEVSFLGVHTGHLGFYTDWRDYELKELVESLCIHREKSTSYPLLDVRIRFRDGKPDKHFLALNESTIKRGNRTMVGDVFIKDELFERFRGDGLSISTPTGSTAYNKSIGGAVLHPSINAFQLTEIASLNNRVFRTLGSPIVIAHTEWLEIKLQESDDYFVTVDQLDIYQENIASVCYRIADERIHFASYRHMHFWHRVKDAFIGED", "soluble on expression in E. coli": "not soluble"}, {"sequence": "MWELAEVQEPEAWNRLVSGFAITSPLQSWGWGEVKRTTGWEPRRFLLLGGEGPVAAAQVLLKAAPGGLRLAYAPRGPALHRLEDLPEVARALGRALRATHLVLEPEAGLPAHLPAPRFPGLLLEEPIQPAHSLWLDLTQGEEALLKGMKEMHRRNARLALKRVALSVEGEEAFAEFYRLFTETNRRARLLQHDEAYYRAVLKEMNQPLGEAFLALARKDGEALAAGLFVAFAGKVAYLYGGSTRKHPEAKAPMGMHLAAIRHGMARGYRVYDLWGIPKNPRGSHAEGIHRFKEGFGGQRVQFPAYVLPLSPLYRPLGLLLRLRKTWVNLRVRGNPRDVLG", "soluble on expression in E. coli": "soluble"}, {"sequence": "MGSDKIHHHHHHMVRGRKIMSLVTDLPAIFDQFSEARQTGFLTVMDLKERGIPLVGTYCTFMPQEIPMAAGAVVVSLCSTSDETIEEAEKDLPRNLCPLIKSSYGFGKTDKCPYFYFSDLVVGETTCDGKKKMYEYMAEFKPVHVMQLPNSVKDDASRALWKAEMLRLQKTVEERFGHEISEDALRDAIALKNRERRALANFYHLGQLNPPALSGSDILKVVYGATFRFDKEALINELDAMTARVRQQWEEGQRLDPRPRILITGCPIGGAAEKVVRAIEENGGWVVGYENCTGAKATEQCVAETGDVYDALADKYLAIGCSCVSPNDQRLKMLSQMVEEYQVDGVVDVILQACHTYAVESLAIKRHVRQQHNIPYIAIETDYSTSDVGQLSTRVAAFIEML", "soluble on expression in E. coli": "not soluble"}, {"sequence": "SNAMKQAIGFIDSGVGGLTVVREVLKQLPHEQVYYLGDTARCPYGPRDKEEVAKFTWEMTNFLVDRGIKMLVIACNTATAAALYDIREKLDIPVIGVIQPGSRAALKATRNNKIGVLGTLGTVESMAYPTALKGLNRRVEVDSLACPKFVSVVESGEYKSAIAKKVVAESLLPLKSTKIDTVILGCTHYPLLKPIIENFMGDGVAVINSGEETASEVSALLDYHNLLDATDEEIEHRFFTTGSTQIFKDIAKDWLNMPDMTVEHIKLGK", "soluble on expression in E. coli": "soluble"}, {"sequence": "MGSDKIHHHHHHMKITVLYSGNYGERVLNTILEKFAQNIVSIHEIPENLPEYIDDVSEYVPENLKESDLIISVGLFGDINLIVCDIAKKTNAKSIIIESHSPKQVTKGLKSEISDSLNEIKIVFPKPFCSLKPVGDTYIDEFAKYFGSPEIEIIGETIVKSVIVKRNAPCGSTKYVAENLTGYSLNEVEFESGNKLHNYPCLASMDVDNEIGDTILHLAGYKIKEAVKKSLKFSNKILTVTGDCKGFECGFKCYKICPVVKMGENAVEIEKTHVNINNLFCGCCMKCVDICPFNAIKVLNYKI", "soluble on expression in E. coli": "not soluble"}]}]}
